Results: patent US20180280496A1
Where two headings read alike, the source gives them in different places.

Experiments:
HLA-B*40:01 [1] = details: chains peptide; modification not given
HLA-A*32:01 [2] = details: chains peptide; modification not given
HLA-B*40:01 [3] = details: chains peptide; modification not given; remark: listed apart in the source
HLA-A*32:01 [4] = details: chains peptide; modification not given; remark: listed apart in the source
A*03:01 (human), P04439 [5] = test: ProImmune REVEAL MHC class I-peptide binding assay
A*11:01 (human), P04439 [6] = test: ProImmune REVEAL MHC class I-peptide binding assay
A*03:01 (human), P04439 [7] = details: modification not given
A*11:01 (human), P04439 [8] = details: modification not given
A*03:01 (human), P04439 [9] = target: T1, A*03:01 (human), P04439; details: modification not given
T1 chain: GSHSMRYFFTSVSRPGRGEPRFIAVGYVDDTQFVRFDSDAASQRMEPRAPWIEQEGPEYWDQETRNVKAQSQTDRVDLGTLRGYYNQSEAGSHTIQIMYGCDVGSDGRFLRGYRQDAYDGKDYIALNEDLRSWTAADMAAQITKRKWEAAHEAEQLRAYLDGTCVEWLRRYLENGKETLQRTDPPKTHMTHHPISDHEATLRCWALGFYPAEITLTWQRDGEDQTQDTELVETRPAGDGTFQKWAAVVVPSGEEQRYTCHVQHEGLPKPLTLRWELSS

A*11:01 (human), P04439 [10] = details: modification not given; remark: listed apart in the source
A*03:01 (human), P04439 [11] = target: T1, A*03:01 (human), P04439; details: modification not given
A*11:01 (human), P04439 [12] = details: modification not given; remark: listed apart in the source

B1: SEQ ID NO: 310 serotype 1 (peptide)
chain: KQWFLDLPL
IC50 (HLA-B*40:01 [1]): 398 nM | IC50 (HLA-A*32:01 [2]): 8 nM

B2: SEQ ID NO: 310 serotype 4 (peptide)
chain: KQWFLDLPL
IC50 (HLA-B*40:01 [3]): 398 nM | IC50 (HLA-A*32:01 [4]): 8 nM

B3: … (peptide)
peptide: MCHATFTMR
modifications: not checked
REVEAL score at 0 h (A*03:01 (human), P04439 [5]): 86.8 | REVEAL score at 0 h (A*11:01 (human), P04439 [6]): 91

B4: SEQ ID NO: 311 serotype 1 (peptide)
chain: ALKLSWFKK
IC50 (A*03:01 (human), P04439 [7]): 42 nM | IC50 (A*11:01 (human), P04439 [8]): 59 nM

B5: SEQ ID NO: 311 serotype 3 (peptide)
chain: ALKINWYRK
IC50 (A*03:01 (human), P04439 [9]): 193 nM | IC50 (A*11:01 (human), P04439 [10]): 376 nM

B6: SEQ ID NO: 311 serotype 2 (peptide)
chain: QLKLNWFKK
IC50 (A*03:01 (human), P04439 [11]): 151 nM | IC50 (A*11:01 (human), P04439 [12]): 778 nM
